What all share (test): cell-based or functional assay
Test [1] concerns the target G protein-coupled receptor kinase GRK5 (human) (human) (UniProt P34947).
The target in test [2] is G protein-coupled receptor kinase GRK6 (human) (human) (UniProt P43250).
The target of test [3] is rhodopsin in urea treated rod outer segments (bovine) (UniProt P02699).
rhodopsin in urea treated rod outer segments (bovine), sequence (P02699 whole entry): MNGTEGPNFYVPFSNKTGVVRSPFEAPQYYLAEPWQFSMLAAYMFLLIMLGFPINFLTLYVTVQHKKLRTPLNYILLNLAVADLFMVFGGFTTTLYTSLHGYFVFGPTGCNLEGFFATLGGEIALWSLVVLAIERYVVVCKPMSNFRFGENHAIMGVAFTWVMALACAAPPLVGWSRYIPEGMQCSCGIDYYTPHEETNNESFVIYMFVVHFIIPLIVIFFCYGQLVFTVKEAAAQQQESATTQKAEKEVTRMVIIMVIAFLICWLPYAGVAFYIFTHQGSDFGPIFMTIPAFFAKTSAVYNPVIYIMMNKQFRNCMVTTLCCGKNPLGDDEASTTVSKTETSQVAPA

G protein-coupled receptor kinase GRK6 (human) (human), sequence (P43250 other isoform, or with tags, fused parts or gaps limits assumed): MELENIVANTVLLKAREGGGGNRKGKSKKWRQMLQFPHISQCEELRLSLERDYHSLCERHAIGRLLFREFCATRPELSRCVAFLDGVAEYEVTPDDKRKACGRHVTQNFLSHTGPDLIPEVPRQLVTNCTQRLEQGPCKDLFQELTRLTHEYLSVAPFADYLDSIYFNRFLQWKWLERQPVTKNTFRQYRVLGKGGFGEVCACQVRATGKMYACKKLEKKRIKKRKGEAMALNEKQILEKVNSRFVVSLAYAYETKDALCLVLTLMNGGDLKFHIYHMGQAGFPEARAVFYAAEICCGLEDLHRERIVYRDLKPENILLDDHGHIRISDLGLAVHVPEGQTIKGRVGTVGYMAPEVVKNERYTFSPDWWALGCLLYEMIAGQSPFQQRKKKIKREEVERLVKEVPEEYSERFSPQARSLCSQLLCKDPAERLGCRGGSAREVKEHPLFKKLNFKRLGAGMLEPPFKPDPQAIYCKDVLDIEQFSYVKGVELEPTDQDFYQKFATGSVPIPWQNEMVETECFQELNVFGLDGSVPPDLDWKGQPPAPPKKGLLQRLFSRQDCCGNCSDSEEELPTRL
G protein-coupled receptor kinase GRK5 (human) (human), sequence (P34947 whole entry E78G): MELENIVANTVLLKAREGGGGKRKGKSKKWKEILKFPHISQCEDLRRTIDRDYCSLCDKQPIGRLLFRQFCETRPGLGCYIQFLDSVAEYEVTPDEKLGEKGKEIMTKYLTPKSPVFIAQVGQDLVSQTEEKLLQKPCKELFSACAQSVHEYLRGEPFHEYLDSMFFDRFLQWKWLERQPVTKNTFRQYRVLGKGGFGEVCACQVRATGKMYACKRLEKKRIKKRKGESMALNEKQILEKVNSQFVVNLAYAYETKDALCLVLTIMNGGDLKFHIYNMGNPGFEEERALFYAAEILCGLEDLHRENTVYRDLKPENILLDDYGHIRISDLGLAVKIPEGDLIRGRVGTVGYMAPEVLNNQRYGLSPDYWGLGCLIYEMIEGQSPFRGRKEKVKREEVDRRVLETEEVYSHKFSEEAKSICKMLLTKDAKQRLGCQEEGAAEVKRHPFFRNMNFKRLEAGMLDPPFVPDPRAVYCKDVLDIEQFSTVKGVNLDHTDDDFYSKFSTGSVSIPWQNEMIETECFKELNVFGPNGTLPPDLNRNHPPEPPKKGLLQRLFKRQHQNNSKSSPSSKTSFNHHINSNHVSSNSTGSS

The substance polylysine, a 14-16 amino acid peptide registered a fold activation of kinase activity in test [1] of 2.6 fold.
Regarding polyaspartic acid (peptide), in test [2], the IC50 of inhibition of kinase activity was found to be 487 nM and the fold less effective as inhibitor compared to GRK5 is 6 fold.
For polyglutamic acid (peptide), in that order: 400 nM and 16 fold.
As to β-adrenergic receptor kinase (enzyme), the light-dependent rhodopsin phosphorylation by Sf9 cell supernatant in test [3] was found to be 2470 pmol/min/mg.
On the same count and under the same terms, in the case of “G protein-coupled receptor kinase GRK5 (human) (from UniProt P34947 1-590) (enzyme)” it was 1120 pmol/min/mg.
“G protein-coupled receptor kinase GRK6 (human) (from UniProt P43250 1-576) (enzyme)” yielded a specific activity of phosphorylation of bleached rhodopsin by Sf9 cell supernatant (pmol/min/mg protein) in test [3] of 81.

The values are drawn from patent publication US20020034767A1, “Compositions and methods for modulating the activity of G protein-coupled receptor kinases GRK5 and GRK6” (priority 1993, published 2002).
